Results published in article PMC10185811 (2023).

What was measured:
His6-RPN1 WT [1] = biological target: T1, His6-RPN1 WT (human, UniProt Q13200 1-908); experiment: BLI
His6-RPN1 WT [2] = biological target: T1, His6-RPN1 WT; experiment: BLI; in presence of GST; unit inferred, M assumed
His6-RPN1 WT [3] = biological target: T1, His6-RPN1 WT; experiment: BLI; NUB1L pre-bound to GST-FAT10; unit inferred, M assumed

T1 sequence (Q13200 whole entry): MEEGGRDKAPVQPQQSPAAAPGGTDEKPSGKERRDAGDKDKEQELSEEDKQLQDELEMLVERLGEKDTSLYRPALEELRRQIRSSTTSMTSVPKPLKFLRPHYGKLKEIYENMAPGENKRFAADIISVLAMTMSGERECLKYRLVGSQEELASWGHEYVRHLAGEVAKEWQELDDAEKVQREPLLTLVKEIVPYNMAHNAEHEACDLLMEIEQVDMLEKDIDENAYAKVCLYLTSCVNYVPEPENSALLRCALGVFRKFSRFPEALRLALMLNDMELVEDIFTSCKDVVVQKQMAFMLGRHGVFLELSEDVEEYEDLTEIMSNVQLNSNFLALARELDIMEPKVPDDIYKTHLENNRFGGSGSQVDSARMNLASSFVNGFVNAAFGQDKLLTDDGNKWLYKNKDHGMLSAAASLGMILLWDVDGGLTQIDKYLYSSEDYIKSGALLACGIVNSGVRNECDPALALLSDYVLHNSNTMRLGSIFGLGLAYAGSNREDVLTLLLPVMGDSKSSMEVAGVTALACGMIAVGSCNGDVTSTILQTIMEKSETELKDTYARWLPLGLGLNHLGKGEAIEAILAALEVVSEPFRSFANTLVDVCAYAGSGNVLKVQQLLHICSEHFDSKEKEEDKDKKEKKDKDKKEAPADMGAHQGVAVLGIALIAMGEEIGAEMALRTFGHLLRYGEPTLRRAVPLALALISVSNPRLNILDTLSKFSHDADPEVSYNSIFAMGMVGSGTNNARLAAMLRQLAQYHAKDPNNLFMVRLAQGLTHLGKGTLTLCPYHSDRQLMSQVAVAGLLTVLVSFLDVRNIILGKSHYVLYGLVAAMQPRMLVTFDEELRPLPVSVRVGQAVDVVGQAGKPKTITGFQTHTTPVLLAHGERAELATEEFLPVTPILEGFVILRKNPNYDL

Binder | Kd (His6-RPN1 WT [1]) [µM] | Kd (His6-RPN1 WT [2]) [µM] | Kd (His6-RPN1 WT [3]) [µM]
NUB1L (NEDD8 ultimate buster 1 long), tagless (natural protein) MAQKKYLQAKLTQFLREDRIQLWKPPYTDENKKVGLALKDLAKQYSDRLECCENEVEKVIEEIRCKAIERGTGNDNYRTTGIATIEVFLPPRLKKDRKNLLETRLHITGRELRSKIAETFGLQENYIKIVINKKQLQLGKTLEEQGVAHNVKAMVLELKQSEEDARKNFQLEEEEQNEAKLKEKQIQRTKRGLEILAKRAAETVVDPEMTPYLDIANQTGRSIRIPPSERKALMLAMGYHEKGRAFLKRKEYGIALPCLLDADKYFCECCRELLDTVDNYAVLQLDIVWCYFRLEQLECLDDAEKKLNLAQKCFKNCYGENHQRLVHIKGNCGKEKVLFLRLYLLQGIRNYHSGNDVEAYEYLNKARQLFKELYIDPSKVDNLLQLGFTAQEARLGLRACDGNVDHAATHITNRREELAQIRKEEKEKKRRRLENIRFLKGMGYSTHAAQQVLHAASGNLDEALKILLSNPQMWWLNDSNPETDNRQESPSQENIDRLVYMGFDALVAEAALRVFRGNVQLAAQTLAHNGGSLPPELPLSPEDSLSPPATSPSDSAGTSSASTDEDMETEAVNEILEDIPEHEEDYLDSTLEDEEIIIAEYLSYVENRKSATKKN | 1.71 | 1.56 | 
GST-FAT10 (natural protein) MAPNASCLCVHVRSEEWDLMTFDANPYDSVKKIKEHVRSKTKVPVQDQVLLLGSKILKPRRSLSSYGIDKEKTIHLTLKVVKPSDEELPLFLVESGDEAKRHLLQVRRSSSVAQVKAMIETKTGIIPETQIVTCNGKRLEDGKMMADYGIRKGNLLFLACYCIGG | 4040 |  | 
NUB1L-bound GST-FAT10 (NUB1L co-incubated with GST-FAT10) (complex) chain 1: MAQKKYLQAKLTQFLREDRIQLWKPPYTDENKKVGLALKDLAKQYSDRLECCENEVEKVIEEIRCKAIERGTGNDNYRTTGIATIEVFLPPRLKKDRKNLLETRLHITGRELRSKIAETFGLQENYIKIVINKKQLQLGKTLEEQGVAHNVKAMVLELKQSEEDARKNFQLEEEEQNEAKLKEKQIQRTKRGLEILAKRAAETVVDPEMTPYLDIANQTGRSIRIPPSERKALMLAMGYHEKGRAFLKRKEYGIALPCLLDADKYFCECCRELLDTVDNYAVLQLDIVWCYFRLEQLECLDDAEKKLNLAQKCFKNCYGENHQRLVHIKGNCGKEKVLFLRLYLLQGIRNYHSGNDVEAYEYLNKARQLFKELYIDPSKVDNLLQLGFTAQEARLGLRACDGNVDHAATHITNRREELAQIRKEEKEKKRRRLENIRFLKGMGYSTHAAQQVLHAASGNLDEALKILLSNPQMWWLNDSNPETDNRQESPSQENIDRLVYMGFDALVAEAALRVFRGNVQLAAQTLAHNGGSLPPELPLSPEDSLSPPATSPSDSAGTSSASTDEDMETEAVNEILEDIPEHEEDYLDSTLEDEEIIIAEYLSYVENRKSATKKN chain 2: MAPNASCLCVHVRSEEWDLMTFDANPYDSVKKIKEHVRSKTKVPVQDQVLLLGSKILKPRRSLSSYGIDKEKTIHLTLKVVKPSDEELPLFLVESGDEAKRHLLQVRRSSSVAQVKAMIETKTGIIPETQIVTCNGKRLEDGKMMADYGIRKGNLLFLACYCIGG |  |  | 0.432
